Patent US20240317834A1, “COMPOSITIONS AND METHODS FOR NEUROLOGICAL DISEASES” (CODA BIOTHERAPEUTICS, INC., priority 2020, published 2024)
Numbering of substitutions follows the chain as printed. Names and notes keep the numbering of the source.

System: Lenti-X 293T cells
Test: YFP fluorescence quenching anion reporter plate reader assay of engineered receptors stimulated with acetylcholine or a non-native ligand
Format: cell-based
Conditions: for percent quench of YFP fluorescence, 10 uM ach: acetylcholine 10 uM; for percent quench of YFP fluorescence, 100 uM ach: acetylcholine 100 uM; for percent quench of YFP fluorescence, 300 uM ach: acetylcholine 300 uM; for percent quench of YFP fluorescence, 500 uM ach: acetylcholine 500 uM; for percent quench of YFP fluorescence, 1 mM ach: acetylcholine 1 mM; for percent quench of YFP fluorescence, 3 mM ach: acetylcholine 3 mM; for percent quench of YFP fluorescence, 10 mM ach: acetylcholine 10 mM
Method in brief: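 YFP quench was followed for about 1 min 43 s after ligand delivered in iodide-based ECS, pH 7.2. Values are end-of-read fluorescence (last 10 s) divided by the pre-ligand baseline (15 s). Cells were LX293T, transfected with receptor DNA a day before the assay.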

B1: CODA1047: engineered chimeric LGIC receptor, R101F, Y210V in SEQ ID NO: 33 (protein)
chain: MRCSPGGVWLALAASLLHVSLQGEFQRKLYKELVKNYNPLERPVANDSQPLTVYFSLSLLQIMDVDEKNQVLTTNIWLQMSWTDHYLQWNVSEYPGVKTVFFPDGQIWKPDILLYNSADERFDATFHTNVLVNSSGHCQYLPPGIFKSSCPMDLKNFPMDVQTCKLKFGSWSYGGWSLDLQMQEADISGYIPNGEWDLVGIPGKRSERFVECCKEPYPDVTFTVTMRRRMGYYLIQMYIPSLLIVILSWISFWINMDAAPARVGLGITTVLTMTTQSSGSRASLPKVSYVKAIDIWMAVCLLFVFSALLEYAAVNFVSRQHKELLRFRRKRRHHKSPMLNLFQEDEAGEGRFNFSAYGMGPACLQAKDGISVKGANNSNTTNPPPAPSKSPEEMRKLFIQRAKKIDKISRIGFPMAFLIFNMFYWIIYKIVRREDVHNQ
modifications: synthetic sequence of chimeric LGIC
With B1 the “YFP fluorescence quenching using CNL001” value (1 nM CNL001, first column) was −7.82%, the “YFP fluorescence quenching using CNL001” value (1 nM CNL001, second column) was −8.382% and the “YFP fluorescence quenching using TC-5619/Bradanicline” value (1 nM brd) was −5.548%. The “YFP fluorescence quenching using TC-5619/Bradanicline” value (3 nM brd) was −9.432%, the “YFP fluorescence quenching using Varenicline” value (3 nM var, first column) was −3.035 and the “YFP fluorescence quenching using Varenicline” value (3 nM var, second column) was −0.786. For the same molecule, the “YFP fluorescence quenching using CNL001” value (10 nM CNL001, first column) was −5.381%, the “YFP fluorescence quenching using CNL001” value (10 nM CNL001, second column) was −1.431% and the “YFP fluorescence quenching using TC-5619/Bradanicline” value (10 nM brd) was −3.068%. The “YFP fluorescence quenching using TC-5619/Bradanicline” value (30 nM brd) was 2.368%, the “YFP fluorescence quenching using Varenicline” value (30 nM var, first column) was −5.181 and the “YFP fluorescence quenching using Varenicline” value (30 nM var, second column) was 0.669. The “YFP fluorescence quenching using CNL001” value (50 nM CNL001, first column) was −0.999%, the “YFP fluorescence quenching using CNL001” value (50 nM CNL001, second column) was 3.909% and the “YFP fluorescence quenching using ABT-126” value (50 nM abt) was −14.1%. For the same molecule, the “YFP fluorescence quenching using CNL001” value (100 nM CNL001, first column) was −0.823%, the “YFP fluorescence quenching using CNL001” value (100 nM CNL001, second column) was −5.885% and the “YFP fluorescence quenching using ABT-126” value (100 nM abt) was −11.72%. The “YFP fluorescence quenching using TC-5619/Bradanicline” value (100 nM brd) was 47.529%, the “YFP fluorescence quenching using ABT-126” value (300 nM abt) was −12.98% and the “YFP fluorescence quenching using TC-5619/Bradanicline” value (300 nM brd) was 74.413%. For the same molecule, the “YFP fluorescence quenching using Varenicline” value (300 nM var, first column) was −2.748, the “YFP fluorescence quenching using Varenicline” value (300 nM var, second column) was −6.708 and the “YFP fluorescence quenching using Varenicline” value (500 nM var, first column) was −9.123. For the same molecule, the “YFP fluorescence quenching using Varenicline” value (500 nM var, second column) was −9.869, the “YFP fluorescence quenching using CNL001” value (1 uM CNL001, first column) was 1.638% and the “YFP fluorescence quenching using CNL001” value (1 uM CNL001, second column) was 3.483%. The “YFP fluorescence quenching using ABT-126” value (1 uM abt) was −15.09%, the “YFP fluorescence quenching using Varenicline” value (1 uM var, first column) was −6.702 and the “YFP fluorescence quenching using Varenicline” value (1 uM var, second column) was −7.26. For the same molecule, the “percent quench of YFP fluorescence, 30 nM TC-6683” value (TC-6683 30 nM) was −24.195%, the “percent quench of YFP fluorescence, 300 nM TC-6683” value (TC-6683 300 nM) was −24.234% and the “percent quench of YFP fluorescence, 3 uM TC-6683” value (TC-6683 3 uM) was −21.291%. For the same molecule, the “percent quench of YFP fluorescence, 30 uM TC-6683” value (TC-6683 30 uM) was −16.363%, the “percent quench of YFP fluorescence, 100 uM TC-6683” value (TC-6683 100 uM) was −24.9% and the “percent quench of YFP fluorescence, 10 uM ach” value was −4.26%. For the same molecule, the “percent quench of YFP fluorescence, 100 uM ach” value was −13.05%, the “percent quench of YFP fluorescence, 300 uM ach” value was −11.73% and the “percent quench of YFP fluorescence, 500 uM ach” value was −10.75%. The “percent quench of YFP fluorescence, 1 mM ach” value was −8.81%, the “percent quench of YFP fluorescence, 3 mM ach” value was −6.77% and the “percent quench of YFP fluorescence, 10 mM ach” value was −1.03%.

B2: CODA1053: engineered chimeric LGIC receptor, R101M, L131A in SEQ ID NO: 33 (protein)
chain: B1 chain with F101M, L131A, V210Y
modifications: synthetic sequence of chimeric LGIC
In the case of B2, the “YFP fluorescence quenching using CNL001” value (1 nM CNL001, first column) is reported as −8.554%, the “YFP fluorescence quenching using CNL001” value (1 nM CNL001, second column) is reported as −13.711% and the “YFP fluorescence quenching using TC-5619/Bradanicline” value (1 nM brd) is reported as 0.008%. For the same molecule, the “YFP fluorescence quenching using TC-5619/Bradanicline” value (3 nM brd) was 43.21%, the “YFP fluorescence quenching using Varenicline” value (3 nM var, first column) was 74.835 and the “YFP fluorescence quenching using Varenicline” value (3 nM var, second column) was 76.119. The “YFP fluorescence quenching using CNL001” value (10 nM CNL001, first column) was 39.631%, the “YFP fluorescence quenching using CNL001” value (10 nM CNL001, second column) was 66.809% and the “YFP fluorescence quenching using TC-5619/Bradanicline” value (10 nM brd) was 77.672%. The “YFP fluorescence quenching using TC-5619/Bradanicline” value (30 nM brd) was 76.277%, the “YFP fluorescence quenching using Varenicline” value (30 nM var, first column) was 77.608 and the “YFP fluorescence quenching using Varenicline” value (30 nM var, second column) was 79.015. For the same molecule, the “YFP fluorescence quenching using CNL001” value (50 nM CNL001, first column) was 82.122%, the “YFP fluorescence quenching using CNL001” value (50 nM CNL001, second column) was 82.031% and the “YFP fluorescence quenching using ABT-126” value (50 nM abt) was −27.01%. The “YFP fluorescence quenching using CNL001” value (100 nM CNL001, first column) was 83.312%, the “YFP fluorescence quenching using CNL001” value (100 nM CNL001, second column) was 83.986% and the “YFP fluorescence quenching using ABT-126” value (100 nM abt) was −18.76%. For the same molecule, the “YFP fluorescence quenching using TC-5619/Bradanicline” value (100 nM brd) was 76.856%, the “YFP fluorescence quenching using ABT-126” value (300 nM abt) was −17.8% and the “YFP fluorescence quenching using TC-5619/Bradanicline” value (300 nM brd) was 75.32%. For the same molecule, the “YFP fluorescence quenching using Varenicline” value (300 nM var, first column) was 80.71, the “YFP fluorescence quenching using Varenicline” value (300 nM var, second column) was 79.002 and the “YFP fluorescence quenching using Varenicline” value (500 nM var, first column) was 78.709. For the same molecule, the “YFP fluorescence quenching using Varenicline” value (500 nM var, second column) was 78.884, the “YFP fluorescence quenching using CNL001” value (1 uM CNL001, first column) was 84.363% and the “YFP fluorescence quenching using CNL001” value (1 uM CNL001, second column) was 83.877%. The “YFP fluorescence quenching using ABT-126” value (1 uM abt) was −6.55%, the “YFP fluorescence quenching using Varenicline” value (1 uM var, first column) was 79.688 and the “YFP fluorescence quenching using Varenicline” value (1 uM var, second column) was 80. The “percent quench of YFP fluorescence, 10 uM ach” value was −3.98%, the “percent quench of YFP fluorescence, 100 uM ach” value was −11% and the “percent quench of YFP fluorescence, 300 uM ach” value was −7.92%. The “percent quench of YFP fluorescence, 500 uM ach” value was 7.36%, the “percent quench of YFP fluorescence, 1 mM ach” value was 57.28% and the “percent quench of YFP fluorescence, 3 mM ach” value was 60.54%. For the same molecule, the “percent quench of YFP fluorescence, 10 mM ach” value was 79.46%.
